This is an account of results in publication PMC4414246.

In this data set the target is U1A E19S:Y13Q (UniProt P09012 10-89, Y13Q;E19S). Kind of data set: fluorescence polarization. On the technique in general: In fluorescence polarisation assays a small probe gives low polarisation when free and higher when bound to something large.
Sequence of U1A E19S:Y13Q (P09012 10-89 Y13Q/E19S): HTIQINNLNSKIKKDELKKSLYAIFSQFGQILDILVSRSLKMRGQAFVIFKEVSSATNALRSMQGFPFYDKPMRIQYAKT

By Kd is commonly meant the constant that tells how readily two partners part at equilibrium. A high value points to a looser complex. The molecule GGCAGAUCUGAGCCUGGGAGCUCUCUGCC (structured_RNA) [TAR RNA] returned a Kd of 10.3 ± 2.8 µM.
